Experimental data from patent US20230226096A1 (Orna Therapeutics, Inc., priority 2020, published 2023).

B1: Hepatovirus D (nucleic acid)
DNA: CTTTGGATGCCCATAGTGCGGGGGTATAAATACCGCACTCCCTTTAGCTGTTCCGAGGGTATCGGAACCTATATGTTTGTTTTCTGTCTGTCTGTCAGCTTTATGTGTGCTCGTCCCCTTTAGGGCACTCATTTCAGCTTGCTTTCATTCTTTTCTTCCCCGGTTCTCACCTTACCGGAGGCACTGGCCGTTGCGCCCGGCGGGGTCAACCTAGTGATTAGCACTAGGCTGTAGGTGTCTAAAGTGGTGACATTAAGACTTGGTAACTGATTTCAGCACTGTTAACTGATGTTGGGGATGACTTGATTGATCTTCTGGAAGGGGTAGGCTACGGGTGAAACCCCTTATCTTAATACCACTATGTAGAGATAGATTCAGTAGGTTAAGGGCAGTGGATAAGGTTGAGTTCATTTTGGACAATAAACCTTCAACACTGGTGGACCCAATCTCACTGACCAGATGCTTTCTTGACTGATCCTTCAGAGGGGTGATTCTTCTGAATAGGTTGCCTTGACACTGATGCCTGAGACCCATTGGGTCGGGCCTTAAATCATGGAACTCCACTGGACTTTCATGGCCTAGCTTCTGCCTTAGACAGACTCTGGGGCCCCACGACCCTCTGGGCCCTTCGGGGTACTCAGGGGCATTTAGGTTTTTCCACAATTAAAAGAGTTA
modifications: Hepatovirus D
B2: Hepatovirus G1 (nucleic acid, listed as Hepatovirus sp.)
DNA: GCAAGGGGTGGTTTTAACCTTGCACGCGTTTACCGTGCGTTAACGGTTTTCCATGTTTGTATGTCTTGTTTGTATTATGTGTTTTGTAAATATTAATTCCTGCAGGTTCAGGGTTCTTTAATCATGTTGGGCTGTACCCACACTCAACTTTTGGCCATAAGTGAGTTTCTTAACGAACCTTTTAACACAGGATGTTATTAGGGCCCAATATTTTCCCTGAGGCCTTCTTTGGCCTCTATTTTTTCCCCTTTTCTATCTCCTTGTATTCCGGGCTCACGTGATGCCAATGGACTGACCCATGCGCCCGTGGGGGTTAACTACTGGAGTAGCCAGTAGCTGTAGGTGCTAAAAGTCACGTACGTGTAAGACTGGACGAGACCTCTCAGCTATAACTGAAAGTAGTAAGTATGTCTGAACTTCTTGAAGGGGTAGGCTACGGGTGAAACCCCTTAGGTTAATACTCATATTGAGAGATACCTCTGATAGGTGAAGGTTTCCGGTAGAGGTGAGTTTAACGACAAAGCCTCTCAACGGATGTGGGCCCACCTCATCAGCAAGATGCTTTCATACCCAATACCGTAGGGGCTGGGTTGTTGAGTTCAGTCCCAAGCGTCCCTCCCGCAAGGTTGTAGGGGTACTCAGGGGCATTTAGGTTTCCACAATTAAACAAATACA
B3: Didelphis aurita HAV (nucleic acid)
DNA: TCTTTGGTCTGGGGAACTAAAATACCAGACCCGCGTTTGCCTAGCGATATAGGCTTTAATTGTTGTTTGTCATTGTGCGTTTGATATGTGTTTTAATGTAAATAATAATTCTAGCAGGTTCTAGTTCTTGATCATGTCCTCTTTAAGGCACTCATTTCAACTTGCTATCTTTCTTTTCTTCCTTGGTTCTCCCTACACCAAATGCACTGGCCGCTGCGCCCGGCGGGGTCAACCACATGATTAGCATGTGGCTGTAGGTGTTGAAGGCTGGGACATGAACATCAATGGAATAGTGCGCATGCTTACTGGGGTCCATTGAAGTAGTGGGATCTTTCTATTGGGGTAGGCTACGGGTGAAACCCCTTAGGTTAATACTCATATTGAGAGATACCTTGGATAGGTTAACTGTGCTGGATATGGTTGAGTTTAACGACAAAAAGCCATCAACAGCTGTGGACAGAACCTCATCCTTAGATTGCTCACTATGGATATGTGCTCTGGGCGTGTTTCTTGCATGATGGCCATTGGTCAATTCATGCCTGGGCCAATGTAGGATTAGCCTTAAATTACTTTTTAAAAGTAGCCTCATTTAGCTGGACTAATGGTGGGGCGTATGATCCTGCATTTGGCCTCTGGGGTAATCAGGGGCATTTAGGTTTCCACATAATAGCAAAT
modifications: Hepatovirus A
B4: Tremovirus B (nucleic acid)
DNA: TTCAAATGGCCCCTGGGTTGATACCCAGTGGTCATTTGGACACTTTGGTAAGGAGGTGTAATTATCCTTCCCATGTGGAACCTAGTGCTTAGGTTTACTTTATATGTTCTTTGTTTGTCCTTTGTACTTTCTATCGGGCAATCTTGTTGTTCAATACAATATGTATTTGAACTGCCTAAGATAAATTCAGTTTTCAACCAACCCCTCTCTTGGGGTTGTGTCTTTCTTTCTTTCTTATATCCTCTTAAGCTGACTTACTTGCTAATCCGACTCCTCGTCAACGGGAGGGTAAAGCAGTATCACTAGGGTATTGTGATGTAGGAGAAAAAGTAAGTAGAGATAGTGCATGTAACGAAAGTGACTTGGTACTTTAAACTCTCTTAATCCCAAAGTGTGGTATTGGTCATGTTGGAGTAGGCTACGGGTGAAACTCCTTCACATTTAGTAATGTGTTCACACGCTAACGCTACGGTAGATGACAGACTAGGTCTTATTCTCAACGTAGGGGGACGGGTGTATGTTCATGATTAGCCACATATTAAGGTTTTGAGGGGCTGAGTCATATAAGTATGTGCATTAATTTCTGGTACTGGTCCCTGGGGACTGGCCCTTTTCTAGGTTGATTTTAGTTTCCCCAATTTTTAAAAACTAATGAGATTTACGAC
modifications: Tremovirus B
B5: Turkey Gallivirus M176 (nucleic acid, listed as Gallivirus sp.)
DNA: CCACTCGCACTTCCTGGATAGTGCGTTAGATATGCCCGACATATCGCTTCCAGGACCAAAGCCCCCCTTTTCTCTTTCCCAACCAGCTTCGCCACTCAAGCTGTAATTCCATGTCCGGTCTTTCCGGCCTTAGTATCATGGAAATGTGGTCGTGCTCAAATGAAATTGAGTTGACATTGATCAATGAAAGTTGCACTGAACTTTGCTAAACTGGCTAGCGCCACCTGGTGTGTGCCGTTGGTCTCCTCACATGGTAACATGTGCCAACGGGCCCGAAAGGCTAGTGGGCAATTACCGCTCCAAGGGAGGGGTACCCACCCCGACCTGAACAGCGGTAATGAAGCTCACCTCCCAGGCTCTGACCCCGAGAAGTTTAGTTATTTAGTAGGTGTAATTAGTACTTGTGATTGGTCAATTTGATAGTAGTTTGAAACGTTATGGATGAATGAGTAGACCCCCTGAAGGTACCCCATTACATGGGATCTGATCAGGGCCACATTCTGCGTGTCTCCCCGCACTTGTGGTTAAAACCATGAAAGTTCATCCCAAACAATCTTTTCCTCTTCTTTTTCTTTTAGTGGTGACAACCTACTGGATTGGTGATTACCAATCTGTACTAGTGTTGTATTAAGACTTGTTGTGTGGAGAAAATGGACTCTTTCAAGAAGATTTTTG
B6: Hepatovirus H2 (nucleic acid, listed as Hepatovirus sp.)
DNA: GTCATGTTTCTCTTTAAGAACACTCAATTTTGGCCATAAGTGAGACTCTTGTCGAACCTTTCATGTCAGGACCATGTTAGGGCCATTATCCTTTTCCCTGGGGCATTCTTCTTGCCCCTGTTTCATCTTTCTATCATCTTTCTTCCGGGCTCTCACAATGCCAATGGAGCGACCGATGCGCACGTCGGGGTTAACCCATGGATTAGCCATGGGCTGTAGCTGCTAAAAGTTGTGACTCCTGAAGCATACTATCAATGGTAGTAGATGTAACTGAAACACTGAAGCTTCTCTGATCTTGAAAGAAGGGTAGGCTACGGGTGAAACCCTTCAGGTTAATACTCATATTGAGAGATACCTTTGGTAGGTTAACGTTGGCGGATAATGTTGAGTTTAACGACAATAAACATTCAACGCCTGTGGGCGAACCTCACCAATTTCATGCTTTGAAGTGAATGTGCGTAGGGTCTCTATCGGAGATGCTATGTGGATGGTGCCCTCCCTGGAAACAGGTTGTAGGGGTACTCAGGTGCACTTAGGTTTCCACATTTTAAAGATTTTTC
B7: Falcovirus A1 (nucleic acid)
DNA: TAAAAGGGGACGCGGTGTGGCAGCTTTGGCTGTCATGCCGTGTTCTCCTTTTACCCCAAGGACTAGCCTTGGGGGTTTTCCAAATTCCTTTCCCTGTAGGCTTTACTTCTCTTTATCTATCTTTTCTGTAACTAAGTTTTGCCTATTCTAAAAATATTTTAGAATGTGTTTGGATGTAACTAAGTTTGTGCCTGCCCTAAAAATATTTTAGGGCTTGTTTGGATAACCTCGTCCCTTGTGTTCAGTGCCGCACAATTTGCTAGGCACTGTTCACTTCCTTTGTTTGTCCATTATGTATGCTAAGGTATGAATTCCATCATATGCTTAGCCTCTACATGCATAATCTTATTCCCTCCCTGGTGCAAACTACGCCCCCAACATATGTGAATCTTTTAAGCATATTCCTGACCCCACACATATATATGTGTTCTCGTGAATTCCCCCACCGTGAGGTGGTCACTTGGACGTGGTGTGTGTCACACAGCATATATATGATGCAGGATGTTGTTTTTAAGATAAGCATATGTCCTTAGTGCTTTGCATCATTTCCTCCACACCCCGTGAATGCGGCTAATCTTAACCCTGTTGGGTCCGTGGGTAAACCAACCCATTAACCACAGGACGGAACCGACTACTTTCGGGAGTGTGTGTTTCTTTTTCTTCTTTTGTCACT
B8: Grusopivirus B (nucleic acid)
DNA: GCCATCCGTAGGTTCTGGTAAGGTTCCATCAACTGTTGGGGCGCTAGTTGCTATGACCGCATTCACGGACGGATGATTTATAGTATCACCCAATCCGGGCACAACTTCTTTAGCCACTTCTTCCACATTACTAAGGGCTCTCTTGCCGAGTTTCAACGTCTAGTCCACGACACGGACCTTCCTACTTTTCTATCTTCTTATTTTCTCTACTAAATTGGTATCTGGTACTGAAGATATGCGGATTGTGATTTTGTGCCTGTCTAAACTAACCCTATTCTAGGGTTAGGTGGGTACCATATACTAATGGTGAACAGGATTACCTATGTATCCATTAGTCCCTATGGATCTGGCGACCCACAAACTCATGTTCATAGAGAGGCTAAGCTGAGTGCTCGCCGAATAAGCATTGCTTCAGGTGCCGACTATTGTCTGGAAACCACTCAGTGATAGCTATAGGGGGGGGCCCCGTAGCATCTGCCTTACTGCCTGATAGGGTGGCGGCTGGTCCATGAACATGCAGTAACCAGTTGACTTGAC
modifications: Grusopivirus B
B9: Yancheng osbecks grenadier anchovy picornavirus (nucleic acid)
DNA: CCTTAGGGTCTGGAATGCGTCCTTTCTGGGCACTTCCACAATCCTAAGGTAATTTTCAACGCCAGCGATGGAGCGATATCCAAAGAACCTTTATGTTTTAGTTCGTCTTGTATGTTTATAAAATATAAAATTGGGATTAGCAACCCACAAAAACATTTTTGTTATTCTCACCACATGAGAGGGTGGTTAAACCTCTTCGTAACCTATCTTGCTTGATTGGCTACTTGGGCTAGATTTAGGACAACCTCTTTAGCAAGCCTAAATTACTCCTCGTACTTGCACCTGGTAACAGGCGTACCTGGAGGTTACGGTGGCGCTAACTTGGACTTCTCGTTAATTCGTGCAAGTTTAAATGATGCCTATTTTGAATACAAGAAAGTATGATAGTAACTTAGGGCGTGAAGTTCCGCTTAACATAAGGCAGTATAAGTACTAAGATAAGGTGTAAGACCTACCTTAATAACTGTTGTCTTTTCTCATGGTCTTTCCGTGGGAGCCCTTGCTAGGGGTAAAGTTAAGTATTCTCAAATAATTTTTCATTCAAACTCTTTCTCTCTGTTTT

Tested on: HEK293 cells
Type: cell-based, human
Conditions: luminescence from secreted Gluc in supernatant 24 hours after transfection of HEK293 cells; circular RNA encoding Gluc with the named IRES (UTR truncated to 675 nt)

Question: Which Expression does the source give for B1 here?
Answer: The Expression was 1.47E+06.

Question: How did the Expression turn out when B2 was run?
Answer: Its Expression is 1.41E+05.

Question: Which Expression does the source give for B3 here?
Answer: Its Expression is 1.38E+05.

Question: With B4 as the molecule, how does the Expression read?
Answer: Its Expression is 1.31E+05.

Question: For B5, which Expression is on record?
Answer: Its Expression is 4.37E+05.

Question: How did the Expression turn out when B6 was run?
Answer: Its Expression is 1.08E+05.

Question: B7 was tested. Which Expression did it give?
Answer: The Expression was 1.48E+05.

Question: How did the Expression turn out when B8 was run?
Answer: The Expression was 2.12E+05.

Question: Which Expression does the source give for B9 here?
Answer: The Expression was 1.57E+06.
